Values quoted from earlier work, collected in PMC8093553.

Target: transferrin receptor (Homo sapiens) (UniProt P02786)
Sequence (P02786 101-760): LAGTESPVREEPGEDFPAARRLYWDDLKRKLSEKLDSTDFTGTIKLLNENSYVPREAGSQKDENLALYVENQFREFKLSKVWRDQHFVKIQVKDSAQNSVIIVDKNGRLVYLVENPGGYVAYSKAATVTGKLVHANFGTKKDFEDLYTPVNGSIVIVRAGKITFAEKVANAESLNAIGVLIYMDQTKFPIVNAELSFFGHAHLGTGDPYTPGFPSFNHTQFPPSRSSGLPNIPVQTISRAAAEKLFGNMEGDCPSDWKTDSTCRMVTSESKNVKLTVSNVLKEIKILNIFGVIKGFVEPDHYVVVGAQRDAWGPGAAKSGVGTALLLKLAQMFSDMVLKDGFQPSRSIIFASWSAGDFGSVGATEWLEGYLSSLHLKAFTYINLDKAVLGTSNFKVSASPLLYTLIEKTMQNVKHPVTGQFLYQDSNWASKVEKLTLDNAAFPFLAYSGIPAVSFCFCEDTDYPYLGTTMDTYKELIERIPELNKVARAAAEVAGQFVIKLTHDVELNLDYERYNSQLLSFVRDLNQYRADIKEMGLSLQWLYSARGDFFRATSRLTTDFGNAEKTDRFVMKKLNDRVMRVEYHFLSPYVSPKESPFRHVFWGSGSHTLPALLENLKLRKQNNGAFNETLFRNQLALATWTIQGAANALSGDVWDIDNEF

Kd: 10 nM
Substance: T7 peptide
